Measurements taken from patent US20190330323A1 (UCB, published 2019).

B2: human Gremlin-1 (recombinant, full length) (ligand)
chain: KKKGSQGAIPPPDKAQHNDSEQTQSPQQPGSRNRGRGQGRGTAMPGEEVLESSQEALHVTERKYLKRDWCKTQPLKQTIHEEGCNSRTIINRFCYGQCNSFYIPRHIRKEEGSFQSCSFCKPKKFTTMMVTLNCPELQPPTKKKRVTRVKQCRCISIDLD

Columns and labels:
Experiment in all cases: cell-based or functional assay
BMP4/7 heterodimer [1] = biological target: T1, BMP4/7 heterodimer (human, UniProt P12644 293-408; P18075 293-431)
T1 sequence (looked up) 1: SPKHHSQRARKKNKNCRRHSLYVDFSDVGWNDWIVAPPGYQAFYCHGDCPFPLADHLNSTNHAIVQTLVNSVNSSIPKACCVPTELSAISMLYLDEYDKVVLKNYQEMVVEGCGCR
T1 sequence (looked up) 2: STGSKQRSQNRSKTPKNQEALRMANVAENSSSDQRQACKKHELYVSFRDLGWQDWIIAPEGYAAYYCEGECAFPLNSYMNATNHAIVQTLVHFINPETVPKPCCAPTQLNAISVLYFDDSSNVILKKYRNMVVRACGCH

BMP4/7 heterodimer [2] = biological target: T1, BMP4/7 heterodimer; remark: listed apart in the source
[3] = biological target: B2
mouse Gremlin = biological target: T2, mouse Gremlin (mouse, UniProt O70326 25-184)
T2 sequence (looked up): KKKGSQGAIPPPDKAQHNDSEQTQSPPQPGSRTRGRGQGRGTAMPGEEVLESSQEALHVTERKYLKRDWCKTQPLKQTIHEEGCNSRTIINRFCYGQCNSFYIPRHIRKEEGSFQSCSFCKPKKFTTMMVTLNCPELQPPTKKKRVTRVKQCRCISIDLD

B1: truncated human Gremlin-1 (E. coli, refolded, N-terminal 6His-TEV tag) (ligand)
chain: MGSSHHHHHHSSGENLYFQGSAMPGEEVLESSQEALHVTERKYLKRDWCKTQPLKQTIHEEGCNSRTIINRFCYGQCNSFYIPRHIRKEEGSFQSCSFCKPKKFTTMMVTLNCPELQPPTKKKRVTRVKQCRCISIDLD
How did the “IC50, Geometric mean (nM), Hek-Id1 reporter gene assay, N = 2” value (BMP4/7 heterodimer [1]) turn out when B1 was run?
The value was 1.7 nM.

And the “IC50 (read off the curve) [B]” value (BMP4/7 heterodimer [2])?
Its value is ~3 nM.

With B2 as the binder, how does the “IC50, Geometric mean (nM), Hek-Id1 reporter gene assay, N = 2” value (BMP4/7 heterodimer [1]) read?
Its value is 1.6 nM.

B3: Ab7326 (as tested in the screening assays of Example 5) (antibody, V domains shown)
VH: QVQLVESGAEVKKPGATVKISCKVSGYTFTDYYMHWVQQAPGKGLEWMGLVDPEDGETIYAEKFQGRVTITADTSTDTAYMELSSLRSEDTAVYYCATDARGSGSYYPNHFDYWGQGTLVTVSS
VL: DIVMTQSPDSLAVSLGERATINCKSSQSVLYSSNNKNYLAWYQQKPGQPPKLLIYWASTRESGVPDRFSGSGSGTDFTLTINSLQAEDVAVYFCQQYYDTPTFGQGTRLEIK
How did the “IC50, restoration of BMP signalling, Hek-Id1 reporter gene assay” value [3] turn out when B3 was run?
The value was 1.3 nM.

What about the “IC50, restoration of BMP signalling, Hek-Id1 reporter gene assay” value (mouse Gremlin) of the same binder?
The value was 0.2 nM.
